Test results: paper doi:10.1101/2024.07.22.604500

Columns and labels:
[1] = molecular target: H1.0–K63-Ub2 chromatosome (CH2) (UniProt P07305)
[2] = molecular target: H1.0–K63-Ub3 chromatosome (CH3) (UniProt P07305)
[3] = molecular target: H1.0–Ub chromatosome (CH1) (UniProt P07305)
[4] = molecular target: unmodified H1.0-containing chromatosome (CH0) (UniProt P07305)

## RNF168^1–193 (from UniProt Q8IYW5 1-193) (domain or fragment)
[1]
  H2A conversion in the in vitro ubiquitylation assay, 5 and 10 min (13% and 25%): 25%
[2]
  H2A conversion in the in vitro ubiquitylation assay, 5 and 10 min (28% and 48%): 48%
[3]
  H2A conversion in the in vitro ubiquitylation assay, 5 and 10 min (2% and 3%): 3%
[4]
  H2A conversion in the in vitro ubiquitylation assay, 5 and 10 min (3% and 5%): 5%
